The DeepSol protein solubility set

experiment: soluble on expression in E. coli; label from the status in PepcDB or PDB records

Sequence | soluble on expression in E. coli
MIETPYYLIDKAKLTRNMERIAHVREKSGAKALLALKCFATWSVFDLMRDYMDGTTSSSLFEVRLGRERFGKETHAYSVAYGDNEIDEVVSHADKIIFNSISQLERFADKAAGIARGLRLNPQVSSSSFDLADPARPFSRLGEWDVPKVERVMDRINGFMIHNNCENKDFGLFDRMLGEIEERFGALIARVDWVSLGGGIHFTGDDYPVDAFSARLRAFSDRYGVQIYLEPGEASITKSTTLEVTVLDTLYNGKNLAIVDSSIEAHMLDLLIYRETAKVLPNEGSHSYMICGKSCLAGDVFGEFRFAEELKVGDRISFQDAAGYTMVKKNWFNGVKMPAIAIRELDGSVRTVREFTYADYEQSLS | soluble
MDNNLEIKDLEKIAKKVRYNIVKMVGLAKSGHPGGSLSATDIIVALYFKLMNYSPDNPYKKDRDRFVLSKGHAAPALYAVLSELGIIEEEELWKLRRLEGKLQGHPSMDTPGVEICTGSLGQGFSAAVGMALGCRLDKLNNYVYVLLGDGECQEGIVWEAAMAAAHYKLDNLIAFIDRNKLQIDGCTEDVMSLGDIKAKFEAFGWDVFEIDGHNFEEIINTVEKAKSMKNGKPKMIIAYTVKGKGVSFMENNVAFHGKAPNEEQLKQALEELSE | soluble
YLDVRQVMYTLVAVFIGSRVIDFVQEGAYAARGALIISKDNDAIASHVMLSMNRGVTVLEGRGGFSKNEQDVLYIVVAKNEIVQLKNIVQAIDPHAFVSVSVVHDVMGEGFTLDENKNPIY | not soluble
MTEQPAVAAPYDVLFEPVQIGPFTTKNRFYQVPHCNGMGYRDPSAQASMRKIKAEGGWSAVCTEQVEIHATSDIAPFIELRIWDDQDLPALKRIADAIHEGGGLAGIELAHNGMNAPNQLSRETPLGPGHLPVAPDTIAPIQARAMTKQDIDDLRRWHRNAVRRSIEAGYDIVYVYGAHGYSGVHHFLSKRYNQRTDEYGGSLENRMRLLRELLEDTLDECAGRAAVACRITVEEEIDGGITREDIEGVLRELGELPDLWDFAMGSWEGDSVTSRFAPEGRQEEFVAGLKKLTTKPVVGVGRFTSPDAMVRQIKAGILDLIGAARPSIADPFLPNKIRDGRLNLIRECIGCNICVSGDLTMSPIRCTQNPSMGEEWRRGWHPERIRAKESDARVLVVGAGPSGLEAARALGVRGYDVVLAEAGRDLGGRVTQESALPGLSAWGRVKEYREAVLAELPNVEIYRESPMTGDDIVEFGFEHVITATGATWRTDGVARFHTTALPIAEGMQVLGPDDLFAGRLPDGKKVVVYDDDHYYLGGVVAELLAQKGYEVSIVTPGAQVSSWTNNTFEVNRIQRRLIENGVARVTDHAVVAVGAGGVTVRDTYASIERELECDAVVMVTARLPREELYLDLVARRDAGEIASVRGIGDAWAPGTIAAAVWSGRRAAEEFDAVLPSNDEVPFRREVTQLA | soluble
MDFSNRLLLLLEVTELGSFTNVAEQKNLDRSVISKQISRLEEELGVRLLNRTTRSLSLTAAGNEMVNQAKLLRDLLNNTHRLAQNYHSEPRGILRITSSMMFGRQYVQDAISVFQKQYPDVKCELRLEDRVVDIVQEGFDIGFRIGRPKNSSLISRKIARSRLLIVASPDFIQQHGKIETIEKLESLPATIYAAPGLFIDKFTYLDENKVEQQFHLNVAYKVNDVEMVVKSAVAGNTLAVVTAQMIENEIIEGKLIPIMTHLNLEDFGTFFAVYPHRDAPIKTKLFIDVLKSIIGEDSPMWEKNIPDFAKLYGGTK | not soluble
MGFGDIQTQPGTYSMHHMTTSTRITSRFLKNKTTNMKRLGVDPPCGVPEPKEDVLLAVSCDAFAFGQDDTNNDRITVEWTNTPDGAAKQFRREWF | not soluble
MGSKYSKATNSINDALSSSYLVPFESYRVPLVDLEEATNNFDHKFLIGHGVFGKVYKGVLRDGAKVALKRRTPESSQGIEEFETEIETLSFCRHPHLVSLIGFCDERNEMILIYKYMENGNLKRHLYGSDLPTMSMSWEQRLEICIGAARGLHYLHTRAIIHRDVKSINILLDENFVPKITDFGISKKGTELGQTHLSTVVKGTLGYIDPEYFIKGRLTEKSDVYSFGVVLFEVLCARSAIVQSLPREMVNLAEWAVESHNNGQLEQIVDPNLADKIRPESLRKFGDTAVKCLALSSEDRPSMGDVLWKLEYALRLQESVIHHHHHH | soluble
MGSDKIHHHHHHMSSDSRDLARSATAWPFQEARALLDERLKGKAPDKGYVLFETGYGPSGLPHIGTFGEVARTTMVRRAFSLLAPEIPTRLFAFSDDMDGLRKVPDNIPNKEMVAKHLGKPLTRIPDPFGTHESFGHHNNARLCSFLDTFGFEYEFQSATDWYKSGRFDAALLGVLKHYDEVINVVLPTLGDERRATYSPFLPVCPDTGIVLQVPVVERNVEAGTIVYKREDGKLIETPVTGGACKLQWKADWGMRWVALGVDYEMSGKDLIPSVQLSTRIATILGGRAPLNLTYELFLDDQGQKISKSKGNGLAVEDWLKYAPQESLALFMYQKPKTAKRLYFDVIPRAVDEYLAYLGKFPSEEPGKKLDNPVWHIHGGKPPAEDAHLSFNILMNLVSVCHSDDPAVIWGFIKRYAPGAAPETAPILNGLVGYAIAYFKDFVKPNMKYRKATPDEVEAFTALKDGLLALPADASVDDIQNLVYAIGKRPCFGELKAWFKACYEVLLGNDQGPRMGSFIKLFGIAETIALLDKAIAGEDM | not soluble
MGSDKIHHHHHHMSYTTNKQPQGYPYFVTSKLREDMIGELVAINDYSFIISNSNIKEINDVLYHIRQEEHNHYGMLLELLRKYDPMEMDAYLRVIAHTTLTPVKEYLTVNSGITDKLLLNYLREGAKGELEAIILYEQHLAEIPYSDIRETLQKIVYEEKEHLEELTLVLINYDKDKYGSIKK | not soluble
MGNKIAVIPGTFDPITNGHLDIIERAAKIFDVLYVSVLNNSSKKPLFTVEERMEMIKQVTAHLPNVHVESASGLTVDYAAKRGATAIVRGLRAVSDFEYEMQIASMNRTLNADIETFFVMTNTKYSFLSSSMVKEVAQYQGDIRELVPEVVNKAVKAKFNK | not soluble
MGSDKIHHHHHHMKGISHRIAIPLILEVGNNKIYNIGQIIKKGNFKRVSLYFGEGIYELFGETIEKSIKSSNIEIEAVETVKNIDFDEIGTNAFKIPAEVDALIGIGGGKAIDAVKYMAFLRKLPFISVPTSTSNDGFSSPVASLLINGKRTSVPAKTPDGIVVDIDVIKGSPEKFIYSGIGDLVSNITALYDWKFEEENHKSIIDDFAVMISKKSVNSFVRTDFKSIKDEVFLKELVDSLTMNGIAMEIAGNSSPASGAEHLISHALDKFLPNPQLHGIQVGVATYIMSKVHKHREERIKKILSDTGFFNYVKGLNMKKSDFKRAISEAHLIKPARYTYLHVEKNCETAKEIVDTDEILRNILV | not soluble
NVAGEEAVREYKKGDEISAVVLAVDAERERISLGIKQMENDPFNAYVADNKKGTLVNATVTAVDAKGATVEIAEGVEGYIRASEVSRDRVEDASLILSAGDVVEAKFTGVDRKNRVINLSIKAKDEAEEQEAMASINKQDEAAFGNAMADAFKAAKGE | not soluble
MAHHHHHHMASAEAEVAADMSAMWRYAEEARAGSSALSDLTYAERQAMLRAVAKALQTNEARILEANREDMVAAKANATADPLLRRLELTPSKLATLIEGISTLADMPDPIGQILSARELDNNLLLLKQTAPIGVVLVVFESRPESLPQIASLALCSGNGLLLKGGREGEHSNAVLHDLIVSAVESSTQGRVPRGVIGLVTNRADVYSLLQLDAHIDLVVPRGSNAMVQNIQRSTRIPVLGHADGICHVYVHKDADVDAALAVAIDAKLNYPAACNAAETLLLHRDLLHSPAHGTTAAQFLVNGMTEAGVSFYAGPQAIAAGLASELAASLHMEYGDAHMTVEVVDDLAAAIAHVNRHGSHHTDTILTVDKAAAAEFQRRVESACVFHNCSTRFADGFRFGLGAEVGISTARIHARGPVGVEGLLTQKWVLKPMGSLPQATEDGAAAAAANAPYATVAEFQKGQRVFTHKDVTRKLQDEAAGLRLQA | not soluble
MSIEWYAVHTLVGQEEKAKANLEKRIKAFGLQDKIFQVLIPTEEVVELREGGKKEVVRKKLFPGYLFIQMDLGDEEEPNEAWEVVRGTPGITGFVGAGMRPVPLSPDEVRHILEVSGLLGKKEAPKAQVAFREGDQVRVVSGPFADFTGTVTEINPERGKVKVMVTIFGRETPVELDFSQVVKA | soluble
MLIILTGLPSVGKSTFSKAFSKKMAEKNIDNIILGTDLIRESFPVWKESYEEFIRDSNNYLIKEALENKFSVIVDDTNYYNSKRRDLMNIAKECDTNYVTIYLKAPLNLLLKRNIERGQKIPNEVIKNMYEKFDTPGTKYAWDLPDITVDTTEKIDYNEILNEILEINENKNLKIEEDKIPKSEPVESDLVKIDSLTRNIVGNLIKTGKIDKKDIKLLSEIRKSFLKDCKKIESEKLDFEKIEKDFLDYLNKNLK | not soluble
MSLTVPQSITELDLKNLTNRTFHPSPVAWEDQVLYFLLLDRFSDGKETGYRDNRGRRVAKGETPLYQPGDAGNAIRTEPEAAVWRESGSRWCGGTLKGLASKMGYLKRMGVTAVWVSPLFKQCSFVPTYHGYGIQNFLEVDPHFGTADDLRELVHVAHANGIYVILDIILNHAGNIFAYDRGYTPYDGSTVYPVTGFRSADGTPNLPFGPIDTKANPDAWPDGAVWPRELQAANAYTRMGHIRDWDSYHEYLDGDFFDLKDIHLGEGEVDAFRPSPALLALCEVYKYWIALSDVDGYRIDTVKHMGAGATRFFASVIHEFAQAIGKENFYLIGEITGGRDNAFNTLATTGLNAALGVDDIPLRLEDLVKGRANPADYFNLFRNSLLVRKESHVWFRDKVVTVIDDHDQVCRGAKKERFCAGDPKWRRLVLNALALNTTTLGIPCVYYGTEQAFDGEGGDDRYLRECMFGGPFGAFRTRGVQFFDEENPVYREFAKILALRREKLPLRRGRQYLREISGDGVTFGLPYVIGGEIRSVVPWSRIFDTEEMVLAINTDADSPRTAWVLVDGSLHREGDRFAYRYSTDPGQVRGTTAVQRINDAVQAIQVTVPAAGFVMLEQREGHHHHHH | soluble
MSLAQKVKLSTIAETLGLSTATVSLALRDSPLVAAVTRDKIKEQARALGYIYNRRAASLRTSRSGIIGVVVHDIMNPFYGEILKAIEAELDRDKQTFILSNHYDSVEKQRDFIETLLQLGGDGVIMSPAIGTPPQDIQLAEDNGMPAILIARSIEGLDVPIFRGDDAYGISLATNHLIGLGHRCIAMVGGTDQTSTGRDRYQGYVNALRKANIEVDPDLRIPGPRSKQGGFEAAVHLLSLPQKPTAVVCWNDLVAIGMMNGIARAGLVPGVDISVTGYDDLEEASIATPALTTVWNGQAEVGRSAARALLDKLSGSHEPDGIHLIKPEMRIRQSTGPLRVTEGHHHHHH | soluble
MGSDKIHHHHHHMKVLVVDDDKLARKGLISIMDWKKYGFEVVGDVQNGRKALEFLKDNEVDIVFTDIDMPEIDGIELMKMCKKEYPEVKFVVFSMYEDFRYAQSALRLGALDYISKISFEGDECDRILELVERKYKENHSQKETRNEDSELIKRLEKAWMNTRWIFNDSEFNRLYELTRGVELRTAERVFIKSFHSLQKLTGEELEFPSLSSVDSMLEWVKQWKENLYQTCLQTDKTKDIYMFARVILYTDEHIEENLKSEEAAAQIGMSRSYFSTRFKEMTGDTFHNYVISRKMYAAAQKMAKGTENITQIASNLGYDNFYYFTKVFSKEYGCMPTEYVGRIKKCSI | not soluble
RAETAVQRTEDRYHNLVDTAPIPILLFDRDWKALYANEAAIAFLDADSFTEIAGKKASDFLHPDERDAARKRFQRLMREGVSVPEREYRVMTAEGEVKTATIATAPGYYRGEQVAQAMVYR | soluble
